In the assay the target is T1, PPEP-3 E154A/Y190F (proteolytically inactive double mutant of Pro-Pro endopeptidase 3 from Geobacillus … (Geobacillus thermodenitrificans strain …, UniProt A4INY2 27-235, E154A | Y190F)).
T1 construct: codon optimised for E. coli, cloned in pET28a via NdeI/XhoI; Zinc metalloprotease; for the substrate complex the catalytic Zn2+ was partly removed with EDTA and ortho-phenanthroline (occupancy about 40-50%); Surmise: pET28a with NdeI/XhoI adds an N-terminal His6 tag with a thrombin site; no cleavage of the tag is described, and 381 uM = 10 mg/mL (about 26 kDa) fits a kept tag; source: E. coli …
T1 sequence (looked up): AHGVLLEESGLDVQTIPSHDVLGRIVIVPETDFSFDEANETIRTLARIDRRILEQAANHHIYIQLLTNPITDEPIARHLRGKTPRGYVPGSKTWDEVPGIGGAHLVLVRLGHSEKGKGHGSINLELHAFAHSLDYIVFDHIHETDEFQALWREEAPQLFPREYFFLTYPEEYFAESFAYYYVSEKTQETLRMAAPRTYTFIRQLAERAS
The assay is described as follows: crystal structure; co-crystal of the Zn2+-depleted (EDTA and ortho-phenanthroline) double mutant with the substrate peptide; sitting drop vapour diffusion, Morpheus E9, 0.1 M bicine/Trizma base pH 8.5; 2.02 Å, space group P212121, four monomers in the ASU. To be noted: both partners purified.

B1: Ac-EPLPPPP-NH2 substrate peptide (peptide)
peptide: Ac-EPLPPPP-NH2
notes: synthetic substrate peptide of PPEP-3; P3-P3' are PLPPPP, cleavage between P1 and P1' prolines; also called PLPPPP (P3-P3'); source: synthetic peptide
On to B1, for which the binding result was “binds”.

(Values after article PMC12828418, “Structural analyses and substrate profiling of PPEP-3 provide new insights into the molecular basis of Pro-Pro endopeptidase specificity” (iScience, 2025).)
